Reference: publication PMC9482650, “Quantitative fragmentomics allow affinity mapping of interactomes” (Nature Communications, 2022)
Values belong to the binder of their own block, whether it stands above or below them.

What was measured:
Assay in all cases: holdup assay
Set-up in all cases: key: below the threshold = too weak to quantify, mostly under pKd 3.1 to 4
ARHGAP21, Q5T5U3 = molecular target: T1, ARHGAP21, Q5T5U3
T1 sequence (Q5T5U3 45-169, limits assumed, looked up): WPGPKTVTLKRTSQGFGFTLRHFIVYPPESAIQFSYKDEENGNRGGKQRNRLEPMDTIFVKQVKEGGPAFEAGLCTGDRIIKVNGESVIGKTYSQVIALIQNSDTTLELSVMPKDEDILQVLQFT

DFNB31_2, Q9P202 = molecular target: T2, DFNB31_2, Q9P202
T2 sequence (Q9P202 274-371, limits assumed, looked up): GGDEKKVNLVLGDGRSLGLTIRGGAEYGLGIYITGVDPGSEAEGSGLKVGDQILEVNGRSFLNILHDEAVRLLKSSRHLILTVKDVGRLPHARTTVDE

DLG3_2, Q92796 = molecular target: T3, DLG3_2, Q92796
T3 sequence (Q92796 221-321, limits assumed, looked up): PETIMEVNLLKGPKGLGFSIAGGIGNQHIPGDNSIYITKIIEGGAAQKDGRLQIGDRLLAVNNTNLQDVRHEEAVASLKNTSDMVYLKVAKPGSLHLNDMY

FRMPD2_3, Q68DX3 = molecular target: FRMPD2_3, Q68DX3
GIPC2, Q8TF65 = molecular target: GIPC2, Q8TF65
GRIP1_3, Q9Y3R0 = molecular target: T4, GRIP1_3, Q9Y3R0
T4 sequence (Q9Y3R0 247-346, limits assumed, looked up): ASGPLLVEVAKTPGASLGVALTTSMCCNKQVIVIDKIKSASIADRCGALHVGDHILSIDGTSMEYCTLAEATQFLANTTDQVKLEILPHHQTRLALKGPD

GRIP2_5, Q9C0E4 = molecular target: GRIP2_5, Q9C0E4
GRIP2_7, Q9C0E4 = molecular target: GRIP2_7, Q9C0E4
HTRA4, P83105 = molecular target: T5, HTRA4, P83105
T5 sequence (P83105 378-476, limits assumed, looked up): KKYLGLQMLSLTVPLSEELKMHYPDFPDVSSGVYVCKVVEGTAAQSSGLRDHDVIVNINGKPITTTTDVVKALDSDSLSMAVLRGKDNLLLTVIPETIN

Inadl_10, Q8NI35 = molecular target: Inadl_10, Q8NI35
Inadl_2, Q8NI35 = molecular target: Inadl_2, Q8NI35
Inadl_6, Q8NI35 = molecular target: Inadl_6, Q8NI35
LDB3, O75112 = molecular target: LDB3, O75112
LIN7B, Q9HAP6 = molecular target: T6, LIN7B, Q9HAP6
T6 sequence (Q9HAP6 88-185, limits assumed, looked up): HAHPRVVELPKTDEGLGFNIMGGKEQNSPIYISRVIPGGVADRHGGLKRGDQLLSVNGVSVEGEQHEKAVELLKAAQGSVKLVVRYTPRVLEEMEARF

MAGI1_2, Q96QZ7 = molecular target: MAGI1_2, Q96QZ7
MAGI2_5, Q86UL8 = molecular target: MAGI2_5, Q86UL8
MAGI3_2, Q5TCQ9 = molecular target: MAGI3_2, Q5TCQ9
MPP6, Q9NZW5 = molecular target: T7, MPP6, Q9NZW5
T7 sequence (Q9NZW5 125-219, limits assumed, looked up): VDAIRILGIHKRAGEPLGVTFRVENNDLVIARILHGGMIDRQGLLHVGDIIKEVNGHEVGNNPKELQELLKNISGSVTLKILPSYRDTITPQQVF

MPP7, Q5T2T1 = molecular target: T8, MPP7, Q5T2T1
T8 sequence (Q5T2T1 134-230, limits assumed, looked up): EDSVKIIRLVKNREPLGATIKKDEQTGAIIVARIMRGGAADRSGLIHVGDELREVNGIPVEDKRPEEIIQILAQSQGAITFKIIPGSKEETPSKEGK

NHERF3_1, Q5T2W1 = molecular target: T9, NHERF3_1, Q5T2W1
T9 sequence (Q5T2W1 4-100, limits assumed, looked up): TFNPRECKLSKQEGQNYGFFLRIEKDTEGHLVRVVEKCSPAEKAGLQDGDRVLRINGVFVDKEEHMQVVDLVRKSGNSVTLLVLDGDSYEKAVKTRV

PDZRN3_1, Q9UPQ7 = molecular target: T10, PDZRN3_1, Q9UPQ7
T10 sequence (Q9UPQ7 244-349, limits assumed, looked up): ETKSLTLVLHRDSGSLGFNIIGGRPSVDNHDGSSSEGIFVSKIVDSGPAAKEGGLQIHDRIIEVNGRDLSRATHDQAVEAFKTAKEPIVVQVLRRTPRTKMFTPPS

PICK1, Q9NRD5 = molecular target: PICK1, Q9NRD5
SNTG1, Q9NSN8 = molecular target: T11, SNTG1, Q9NSN8
T11 sequence (Q9NSN8 52-150, limits assumed, looked up): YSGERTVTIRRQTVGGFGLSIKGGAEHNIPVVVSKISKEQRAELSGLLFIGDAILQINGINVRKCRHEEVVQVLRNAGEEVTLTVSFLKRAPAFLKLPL

SYNJ2BP, P57105 = molecular target: T12, SYNJ2BP, P57105
T12 sequence (P57105 8-110, limits assumed, looked up): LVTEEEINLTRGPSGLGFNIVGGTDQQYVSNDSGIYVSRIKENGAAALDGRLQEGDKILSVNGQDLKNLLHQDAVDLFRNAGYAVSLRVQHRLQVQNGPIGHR

[1] = plain residues with an end cap or a label only (N-terminal biotin on a linker: ado-ado)
[2] = modified: phospho on T at position -1 from the C-terminal residue

Chain of Inadl_10, Q8NI35 (Q8NI35 1673-1763): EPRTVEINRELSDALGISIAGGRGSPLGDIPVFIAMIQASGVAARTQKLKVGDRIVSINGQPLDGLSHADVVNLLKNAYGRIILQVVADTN
Chain of FRMPD2_3, Q68DX3 (Q68DX3 1073-1166): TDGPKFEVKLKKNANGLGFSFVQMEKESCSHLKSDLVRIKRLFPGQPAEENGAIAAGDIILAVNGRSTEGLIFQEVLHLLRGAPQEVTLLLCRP
Chain of Inadl_2, Q8NI35 (Q8NI35 238-335): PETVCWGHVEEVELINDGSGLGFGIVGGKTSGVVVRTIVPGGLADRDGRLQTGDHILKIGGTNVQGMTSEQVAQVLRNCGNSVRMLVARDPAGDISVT
Chain of GRIP2_7, Q9C0E4 (Q9C0E4 934-1023): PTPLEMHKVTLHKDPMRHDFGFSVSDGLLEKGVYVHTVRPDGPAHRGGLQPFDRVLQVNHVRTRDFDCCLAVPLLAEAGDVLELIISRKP
Chain of MAGI3_2, Q5TCQ9 (Q5TCQ9 398-503): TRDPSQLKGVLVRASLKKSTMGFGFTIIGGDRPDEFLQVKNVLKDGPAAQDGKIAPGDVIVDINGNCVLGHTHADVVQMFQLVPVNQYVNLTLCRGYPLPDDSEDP
Chain of PICK1, Q9NRD5 (Q9NRD5 17-115): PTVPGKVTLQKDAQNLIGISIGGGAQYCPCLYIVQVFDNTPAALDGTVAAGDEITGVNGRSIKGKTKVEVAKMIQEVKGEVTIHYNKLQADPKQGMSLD
Chain of MAGI2_5, Q86UL8 (Q86UL8 915-1017): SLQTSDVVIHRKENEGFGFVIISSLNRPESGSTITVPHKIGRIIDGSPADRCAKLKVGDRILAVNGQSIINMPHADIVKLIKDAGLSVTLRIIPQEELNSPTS
Chain of LDB3, O75112 (O75112 1-94): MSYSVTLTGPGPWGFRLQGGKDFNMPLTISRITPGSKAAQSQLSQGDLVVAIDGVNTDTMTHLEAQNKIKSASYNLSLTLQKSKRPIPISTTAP
Chain of MAGI1_2, Q96QZ7 (Q96QZ7 456-580): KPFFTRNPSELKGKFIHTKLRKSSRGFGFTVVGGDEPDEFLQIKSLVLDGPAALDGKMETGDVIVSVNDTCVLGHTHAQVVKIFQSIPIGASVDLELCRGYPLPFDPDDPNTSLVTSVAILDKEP
Chain of GIPC2, Q8TF65 (Q8TF65 112-203): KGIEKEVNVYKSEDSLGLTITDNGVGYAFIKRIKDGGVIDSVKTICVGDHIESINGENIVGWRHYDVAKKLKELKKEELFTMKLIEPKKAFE
Chain of GRIP2_5, Q9C0E4 (Q9C0E4 544-642): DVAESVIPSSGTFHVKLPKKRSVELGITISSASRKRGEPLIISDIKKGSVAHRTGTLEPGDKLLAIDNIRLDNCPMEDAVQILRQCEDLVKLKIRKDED
Chain of Inadl_6, Q8NI35 (Q8NI35 1058-1167): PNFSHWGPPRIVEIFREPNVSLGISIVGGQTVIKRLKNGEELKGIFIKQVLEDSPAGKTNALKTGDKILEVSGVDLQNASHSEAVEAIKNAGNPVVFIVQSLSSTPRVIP

- pKd (ARHGAP21, Q5T5U3; [1]): 4.16
- pKd (DFNB31_2, Q9P202; [1]): below the threshold
- pKd (DLG3_2, Q92796; [1]): below the threshold
- pKd (FRMPD2_3, Q68DX3; [1]): below the threshold
- pKd (GIPC2, Q8TF65; [1]): below the threshold
- pKd (GRIP1_3, Q9Y3R0; [1]): below the threshold
- pKd (GRIP2_5, Q9C0E4; [1]): below the threshold
- pKd (GRIP2_7, Q9C0E4; [1]): 4.08
- pKd (HTRA4, P83105; [1]): below the threshold
- pKd (Inadl_10, Q8NI35; [1]): below the threshold
- pKd (Inadl_2, Q8NI35; [1]): 3.51
- pKd (Inadl_6, Q8NI35; [1]): below the threshold
- pKd (LDB3, O75112; [1]): below the threshold
- pKd (LIN7B, Q9HAP6; [1]): below the threshold
- pKd (MAGI1_2, Q96QZ7; [1]): below the threshold
- pKd (MAGI2_5, Q86UL8; [1]): below the threshold
- pKd (MAGI3_2, Q5TCQ9; [1]): below the threshold
- pKd (MPP6, Q9NZW5; [1]): below the threshold
- pKd (MPP7, Q5T2T1; [1]): below the threshold
- pKd (NHERF3_1, Q5T2W1; [1]): below the threshold
- pKd (PDZRN3_1, Q9UPQ7; [1]): 3.47
- pKd (PICK1, Q9NRD5; [1]): below the threshold
- pKd (SNTG1, Q9NSN8; [1]): below the threshold
- pKd (SYNJ2BP, P57105; [1]): below the threshold
Binder: GQSVDLVFPV [AKIP1, Q9NQ31]

- pKd (ARHGAP21, Q5T5U3; [2]): below the threshold
- pKd (DFNB31_2, Q9P202; [2]): below the threshold
- pKd (DLG3_2, Q92796; [2]): 3.89
- pKd (FRMPD2_3, Q68DX3; [2]): below the threshold
- pKd (GIPC2, Q8TF65; [2]): 3.55
- pKd (GRIP1_3, Q9Y3R0; [2]): 3.34
- pKd (GRIP2_5, Q9C0E4; [2]): below the threshold
- pKd (GRIP2_7, Q9C0E4; [2]): below the threshold
- pKd (HTRA4, P83105; [2]): 3.48
- pKd (Inadl_10, Q8NI35; [2]): 3.54
- pKd (Inadl_2, Q8NI35; [2]): 3.45
- pKd (Inadl_6, Q8NI35; [2]): 3.52
- pKd (LDB3, O75112; [2]): 3.62
- pKd (LIN7B, Q9HAP6; [2]): 3.56
- pKd (MAGI1_2, Q96QZ7; [2]): 4.32
- pKd (MAGI2_5, Q86UL8; [2]): 3.56
- pKd (MAGI3_2, Q5TCQ9; [2]): 3.94
- pKd (MPP6, Q9NZW5; [2]): below the threshold
- pKd (MPP7, Q5T2T1; [2]): 3.35
- pKd (NHERF3_1, Q5T2W1; [2]): 4.2
- pKd (PDZRN3_1, Q9UPQ7; [2]): 4.26
- pKd (PICK1, Q9NRD5; [2]): 3.49
- pKd (SNTG1, Q9NSN8; [2]): 3.73
- pKd (SYNJ2BP, P57105; [2]): 4.48
Binder: RRVRKLPSTTL [RPS6KA1_-1P, Q15418]

- pKd (ARHGAP21, Q5T5U3; [1]): below the threshold
- pKd (DFNB31_2, Q9P202; [1]): below the threshold
- pKd (DLG3_2, Q92796; [1]): 4.16
- pKd (FRMPD2_3, Q68DX3; [1]): below the threshold
- pKd (GIPC2, Q8TF65; [1]): below the threshold
- pKd (GRIP1_3, Q9Y3R0; [1]): below the threshold
- pKd (GRIP2_5, Q9C0E4; [1]): below the threshold
- pKd (GRIP2_7, Q9C0E4; [1]): below the threshold
- pKd (HTRA4, P83105; [1]): below the threshold
- pKd (Inadl_10, Q8NI35; [1]): below the threshold
- pKd (Inadl_2, Q8NI35; [1]): below the threshold
- pKd (Inadl_6, Q8NI35; [1]): below the threshold
- pKd (LDB3, O75112; [1]): below the threshold
- pKd (LIN7B, Q9HAP6; [1]): 3.85
- pKd (MAGI1_2, Q96QZ7; [1]): below the threshold
- pKd (MAGI2_5, Q86UL8; [1]): below the threshold
- pKd (MAGI3_2, Q5TCQ9; [1]): below the threshold
- pKd (MPP6, Q9NZW5; [1]): below the threshold
- pKd (MPP7, Q5T2T1; [1]): below the threshold
- pKd (NHERF3_1, Q5T2W1; [1]): below the threshold
- pKd (PDZRN3_1, Q9UPQ7; [1]): below the threshold
- pKd (PICK1, Q9NRD5; [1]): below the threshold
- pKd (SNTG1, Q9NSN8; [1]): below the threshold
- pKd (SYNJ2BP, P57105; [1]): below the threshold
Binder: LSEFKAMDSF [CTNNA2, P26232]
